Measurements taken from FireProtDB (doi:10.1021/bi951726o).

B1: Tryptophan synthase alpha chain, P0A877 (parent)
chain: MERYESLFAQLKERKEGAFVPFVTLGDPGIEQSLKIIDTLIEAGADALELGIPFSDPLADGPTIQNATLRAFAAGVTPAQCFEMLALIRQKHPTIPIGLLMYANLVFNKGIDEFYAQCEKVGVDSVLVADVPVEESAPFRQAALRHNVAPIFICPPNADDDLLRQIASYGRGYTYLLSRAGVTGAENRAALPLNHLVAKLKEYNAAPPLQGFGISAPDQVKAAIDAGAAGAISGSAIVKIIEQHINEPEKMLAALKVFVQPMKAATRS

Variants of: B1
Conditions: Escherichia coli (strain K12), pH 7.8, Urea, NMR, Potassium phosphate 58 mM, reversible: yes, structure 1WQ5, whole UniProt chain shown

| Variant | denaturant midpoint (higher = more stable) (5 °C) | unfolding free energy (5 °C) | denaturant midpoint (higher = more stable) (25 °C) | unfolding free energy (25 °C) |
| --- | --- | --- | --- | --- |
| MERYESLFAQLKERKEGAFVPFVTLGDPGIEQSLKIIDTLIEAGADALELGIPFSDPLADGPTIQNATLRAFAAGVTPAQCFEMLALIRQKHPTIPIGLLMYANLVFNKGIDEFYAQCEKVGVDSVLVADVPVEESAPFRQAALRHNVAPIFICPPNADDDLLRQIASYGRGYTYLLSRAGVTGAENRAALPLNHLVAKLKEYNAAPPLQGFGISAPDQVKAAIDAGAAGAISGSAIVKIIEQAINEPEKMLAALKVFVQPMKAATRS [H244A] | 4.8 M | 4 kcal/mol |  |  |
| MERYESLFAQLKERKEGAFVPFVTLGDPGIEQSLKIIDTLIEAGADALELGIPFSDPLADGPTIQNATLRAFAAGVTPAQCFEMLALIRQKHATIPIGLLMYANLVFNKGIDEFYAQCEKVGVDSVLVADVPVEESAPFRQAALRHNVAPIFICPPNADDDLLRQIASYGRGYTYLLSRAGVTGAENRAALPLNHLVAKLKEYNAAPPLQGFGISAPDQVKAAIDAGAAGAISGSAIVKIIEQAINEPEKMLAALKVFVQPMKAATRS [P93A H244A] |  |  | 5.4 M | 3.4 kcal/mol |
| MERYESLFAQLKERKEGAFVPFVTLGDPGIEQSLKIIDTLIEAGADALELGIPFSDPLADGPTIQNATLRAFAAGVTPAQCFEMLALIRQKHPTIPIGLLMAANLVFNKGIDEFYAQCEKVGVDSVLVADVPVEESAPFRQAALRHNVAPIFICPPNADDDLLRQIASYGRGYTYLLSRAGVTGAENRAALPLNHLVAKLKEYNAAPPLQGFGISAPDQVKAAIDAGAAGAISGSAIVKIIEQHINEPEKMLAALKVFVQPMKAATRS [Y102A] |  |  | 5 M | 5.4 kcal/mol |
| MERYESLFAQLKERKEGAFVPFVTLGDPGIEQSLKIIDTLIEAGADALELGIPFSDPLADGPTIQNATLRAFAAGVTPAQCFEMLALIRQKHPTIPIGLAMYANLVFNKGIDEFYAQCEKVGVDSVLVADVPVEESAPFRQAALRHNVAPIFICPPNADDDLLRQIASYGRGYTYLLSRAGVTGAENRAALPLNHLVAKLKEYNAAPPLQGFGISAPDQVKAAIDAGAAGAISGSAIVKIIEQHINEPEKMLAALKVFVQPMKAATRS [L100A] |  |  | 5.2 M | 4.7 kcal/mol |
| MERYESLFAQLKERKEGAFVPFVTLGDPGIEQSLKIIDTLIEAGADALELGIPFSDPLADGPTIQNATLRAFAAGVTPAQCFEMLALIRQKHPTAPIGLLMYANLVFNKGIDEFYAQCEKVGVDSVLVADVPVEESAPFRQAALRHNVAPIFICPPNADDDLLRQIASYGRGYTYLLSRAGVTGAENRAALPLNHLVAKLKEYNAAPPLQGFGISAPDQVKAAIDAGAAGAISGSAIVKIIEQHINEPEKMLAALKVFVQPMKAATRS [I95A] |  |  | 6.2 M | 7.9 kcal/mol |
| MERYESLFAQLKERKEGAFVPFVTLGDPGIEQSLKIIDTLIEAGADALELGIPFSDPLADGPTIQNATLRAFAAGVTPAQCFEMLALIRQKHPTIAIGLLMYANLVFNKGIDEFYAQCEKVGVDSVLVADVPVEESAPFRQAALRHNVAPIFICPPNADDDLLRQIASYGRGYTYLLSRAGVTGAENRAALPLNHLVAKLKEYNAAPPLQGFGISAPDQVKAAIDAGAAGAISGSAIVKIIEQHINEPEKMLAALKVFVQPMKAATRS [P96A] |  |  | 8.6 M | 4.9 kcal/mol |
